assay: label from the status in PepcDB records

| Sequence | protein production |
| --- | --- |
| MAGATDRDGWKVERGDDSWTVPGYIDLKKLGKGGAGRVMIARHAGTGRNVAIKYLNEELCSKVEFRTALRAEARLLGGLTSPHVTRLYEYVEAEQGAAIVMELVYGAALRTLLKKEGSTDIEAALVVLKGSLLGLAAAHGVGVVHRDYKPENVLVNWDGQTKLVDFGISARTGDRHNLRGTCAYMPPEQWKLEAATPAGDVYAATATLYECVTGVRPFEGPEPWDFQRQHVDEPVPMDRVPEEVRALVRHGMAKDPALRPPSALDFLRELEWAAENAYGPDWEERGQSRLAAVAAALVPLAISRLDARLVGSSAELARTVLTARRRSRLRRRGDVLTGAAAVAVVGLLSLMPSGWAAGGAEGHAGAHAQAVTRLDARKDTGSATEARGTEHGDTAESDPDSDRAGTSGAQGGGGHGDGGAGLAPADGGTRSDSGSGGGAGDSGTDSPDDGNNTVERNGGTENGGTENGGTENGGTENGGTENGGTENGGTENGGTENGGTENGGTENGGTENGGTENGGTENGGTENGGTENGGTENGGTENGGTENGGTENGGTENGGTENGGTENGGTENGGTENGGTENGGTENGGTDNGGTDNGGTDNGGTDARHGHSNAGTSDGDPASTGGTDSGNSAGGTGTGTGSGSTSAVTPRQGDPAAVEGEPG | failed |
| MAGEDSFERIALEWHARHMANKSESHATKTLERLRKDVFPWIGNRPVREITAPELLSVLRRIESRGAIELCHVTKRICGQVMRYAIATGRAERDPAADLKGALQPVKARHLEHHHHHH | failed |
| MAGENFATPFHGHVGRGAFSDVYEPAEDTFLLLDALEAAAAELAGVEICLEVGSGSGVVSAFLASMIGPQALYMCTDINPEAAACTLETARCNKVHIQPVITDLVKGLLPRLTEKVDLLVFNPPYVVTPPQEVGSHGIEAAWAGGKNGREVMDRFFPLVPDLLSPKGLFYLVTIKENNPEEILKIMKTKGLQGTTALSRQAGQETLSVLKFTKS | failed |
| MAGGTKRLPRAVREQQMLDAAVDVFSDRGFHETSMDAIAAKAEISKPMLYLYYGSKDELFAACIQREGLRFVEALAPAGDPGLSPREQLRRALEGFLGFVGKHRKSWMVLYRQAMGQQAFVGSVQSSRDRLIELTAHLLESSTKDPEPGQDFELIAIALVGAGEAVADRVAGGEIEVDAAADLLESLAWRGLAGKKKPE | not failed |
| MAGGYGVRSPGPCVQCLARPMTTPFWPGRERCASLASRDAFAARLFKRQKMESFLVSTGIVALAEMGDKTQLLSLVLAARYRKPIPIILGILIATLVNHGFAGALGGWITGMVGVDLLRWILGLGFIAMAGWMLIPDKLDDAEEAKPVKGALGILGTTIIAFFFAEMGDKTQIATVALAARFHGEVIAVVAGTTFGMMLANAPAVLLGDRFANKMPIALVHKIAAAIFLVLGLLALFNVGG | failed |
| MAGLVKKTTGLVGLAVCDTPHERLTILYTKILDLLKHFPKHAAYRKYTEQITSEKLELVKLEPDVKKLENLLQGGEVEEVILQAEKELSLARKMLQWKPWEPLVEEPPANQWKWPI | failed |
| MAGRFAPRPPRAVVRDGIPRQALAPGRVRVWAPDGPLDVGLVLGPLRRGPGDPTFRTMPDGSVWRTGRTPAGPGTLRVTARGGEVRGEAWGPGAEWLLERLPLMLGAEDDPSAFVPRHRLLAVTAHRRPGLRLTRTGLVLESLIPSILEQKVTTLEAYQAWRLLVRKFGEPAPGPAPGRMCVMPAARTWALIPSWEWHLAGVDDKRASTVLRAVRVAARLEEAAGMEPAAARERLELVPGVGPWTSAETVQRSHGAPDAVTVGDLHLPGIVGFALGGDRYADDAEMLRLLEPYAGQRHRAARLVLLSGRVPERRAPRMAPRGIERL | failed |
| MAGTSQMNNGRSWMQGEKMIPNKDDAEEFANKAKNAVNSGDYDGAIADIERAIKASPRSVPYHLIKADALYRKGDYEDALDVLNFAETIEKNNPELLSLKSICYGSLGKFNESKIEATKAIKADPNYPFAYYNRAKAEQYLEEYDIAKKDLQKYLEMQPNDPDAYMDLADMEYHEGDYKKALQHVNTAIKKDKESTDAHDLKLNILLAQKDIENYLKELLEAFKDTEDFKYIGTLVETLKSVGSFDTAEDILKEFIKIYKDEPFLYDALARVYYDQDRKDDAYRTYEELLKSNDDREAKIYWFDFLLDDGSYDRLIGEIEKSGLKDDEVLEIKYIAEDQKGDHKAALSTADDLLKLDRTPYNTSLYGSQLRKLGRLDESIKALSEFDDDPDVAYELFLAYMDRGDVHSASKYLKTSIENSEDDDDVISNVLEGVSKMMDHSDFQSVNDFLDGLGKENDNLYILTEAMHAINSGVFEGYEKGKEKFLGLDEHKEEVCEFANNIVELTEGKAKAFLEKFIEDNCGENEMEE | failed |
| MAGWGIRSITGTSKLRAAMLLVVVGLLSVSGWLQRLDWLVYDEIISRQSFQPDSDIVIVAIDEESLRTIGKWPWSRELHAGLIDRLSQIGSNVVALDLLLSEPDVDHPEADKRLKTAIFTHGNVVLPVAPAQNASGDRFSLIQPLASLQRRATLGHVDVELDRDGVARRTFLYAGIDIPAFPALGLALADKGSLPNRMRLLSRMPEADKTIVNTGNSWVRSREIMVPFAGPPGTYPRISYARLLNDDDLLDDLRGKIIIVGMTATGLQQGFLTPVSLTRHNYMSGVEWHASVVDMLRNGRSIYPVPEMVAIAVTVLWVLAVLLVVNIVPGRFRSLVLLVSLAAGIGLVTMLLGVFHIWLPPGVALIGTLAVYPLQSWQRINEFIQSQFITGSCLQAVFDSVQEGVITVDAKGNILYLNQESERILGARSEQLIGKPLEQLIGVCLIPDKQDRDVNGSGSADTRPDSRIQHCVLTLPSGDRRTIRVTHRALYDRWRIPAGAVVTISDISDTLEMKQQIARQANYDVLTMLPSRNFLLSRFGELAVSARQHGAALIVCLVSVDNFSKINDAFGYHSGDALLKMIADRLLKLVCSEDLIARWSGDEFMLVVDRPVREGQELQFARKVQETINRRFEINGQEVFISASIGIRISSQPDQVDEKSEIFLDEAVSAMRRVKRQGGNGFQFYASGQMNAWTREQLEFERDFRLAIENQDKALHVLFQPIVDVQQKRVVHNEVLVRWAHPTRGLLSPGDFIPLAERVGLIGQLGDLVLWISCRIAADLAKVGQAVDISVNVASRQLLHPDFLQKVAGVLERTGLPAGRLMLEITESAVISDLPRAAEALVRLKALGVAIALDDFGTGYSSLSLLRELPLDILKIDKSFIQGIEQDHPGDEKFDFAIARAIIALGDNLGLGVIAEGVETEKHMEFLRKHHCYLQQGYYFSRPLSTTQLMQFMGRPDSIRV | failed |
| MAHHHHHHMAITLPKLKYALNALSPHISEETLSFHYNKHHAGYVNKLNGLIKDTPLANKSLTDILKESTGAIFNNAAQIWNHSFYWDSMGPNCGGEPHGEIKEKIQEDFGSFNNFKDQFSNVLCGHFGSGWGWLALNKNNKLVILQTHDAGNPIKENTGIPILTCDVWEHAYYIDYRNDRLSYVKAWWNLVNWNFANENLKNALNK | not failed |
| MAHIFVYGTLKRGQPNHKVMLDHSHGLAAFRGRGCTVESFPLVIAGEHNIPWLLYLPGKGHCVTGEIYEVDEQMLRFLDDFEDCPSMYQRTALQVQVLEWEGDGDPGDSVQCFVYTTATYAPEWLFLPYHESYDSEGPHGLRYNPRENR | not failed |
| MAIEPDLGLDSTEPKLFSARLKPHRALSHNGFLILIGLVGTASFAAGLAFWLIGAWPVFGFFGLDVLALAFAFKVSFARARASEEISMTCSELRVRRTSARGEVAEWVLNPLWVRLEKIVHHDAGIERLYLVSSGRRLAIANFLGAEEKANFAKALMAALDAARRGPLYPA | failed |
| MAILSYISATSTTPPIPQDQSPNSRLPTKIILPNKKPEKWSTGVAPGEYGGPPTTTKLRKYWGGEKEDPITSTDLIWNRDFMDQMKKLFDDPNDSSLDPSPSKEKSSGFLSFSRVMSLDSMDVDLSKELASSSKSVVKNRLDTSKSEAKKQMSKAIVSPKWKLAPTRREQEKWDRATKAATGGSDVMFRELRRPRGDPEVQAAKDREQYFKLKNKIQVLTLGIGGVGLVSAYISYTPEIALSFGAGLLGSLAYMRMLGNSVDAMADGARGVAKGAANQPRLLVPVVLVMIFNRWNAILVPEYGFMHLELIPMLVGFFTYKIATFFQAIEEAISITTQKPESISPDTQASD | not failed |
| MAILVDVRAAREIQDGEAGCRWERPLALGQGAFYAATGAWPLVHMPSFVAVTGPKLEPWLVRTVGVLIGAIGGTLLSAGARRRITPEVRWLALASAAGIAAVELWYAGRRRRIAPVYLLDGAGELALAAAWAALGAGRRLRGGVGTVAGGRGRHGREEDAR | failed |
| MAIPHYRLASFSSIIDDEIDKSVLVNLVGAIYDVGEFINTRPKQNIVDDLTLTFKISDNENRVLECLATKKEALDFDHNYRQYGGGVIVAVLGWWKIERYFDGTKNIRVCTACPISTVFP | failed |
